Assay results taken from publication PMC13399020 (The FASEB Journal, 2026).
Where a chain is given by its changes, count along the chain named. Names may count otherwise. “And” between values parts separate entries of the source, which are not always exact repeats. Equal entries are not always repeated.

B1: phenylalanine hydroxylase, wild type (PAH-WT), full-length (enzyme, human, UniProt P00439 1-452, looked up)
chain: MSTAVLENPGLGRKLSDFGQETSYIEDNCNQNGAISLIFSLKEEVGALAKVLRLFEENDVNLTHIESRPSRLKKDEYEFFTHLDKRSLPALTNIIKILRHDIGATVHELSRDKKKDTVPWFPRTIQELDRFANQILSYGAELDADHPGFKDPVYRARRKQFADIAYNYRHGQPIPRVEYMEEEKKTWGTVFKTLKSLYKTHACYEYNHIFPLLEKYCGFHEDNIPQLEDVSQFLQTCTGFRLRPVAGLLSSRDFLGGLAFRVFHCTQYIRHGSKPMYTPEPDICHELLGHVPLFSDRSFAQFSQEIGLASLGAPDEYIEKLATIYWFTVEFGLCKQGDSIKAYGAGLLSSFGELQYCLSEKPKLLPLELEKTAIQNYTVTEFQPLYYVAESFNDAKEKVRNFAATIPRPFSVRYDPYTQRIEVLDNTQQLKILADSINSEIGILCSALQKIK
modifications: biotin (EZ-Link NHS-PEG4-Biotin) in the BLI experiments only
notes: phenylalanine hydroxylase (PAH), human, wild type; RD residues 1-110, CD 111-410, OD 411-452; Homotetramer; a minor octamer is also seen; also called full-length PAH
B2: MBP-PAH(33-112) (domain or fragment, human, UniProt P00439 33-112, looked up)
chain: GAISLIFSLKEEVGALAKVLRLFEENDVNLTHIESRPSRLKKDEYEFFTHLDKRSLPALTNIIKILRHDIGATVHELSRD
notes: Derived from pMAL-c5x/PAH (GenScript); Dimer in 1 mM L-Phe by SEC-MALS; theoretical monomer 52.9 kDa with MBP; also called MBP-PAH(RD); PAH(RD); source: E. coli K12 TB1, purified
B3: C-terminal peptide DNAJC12(176-198) (peptide, UniProt Q9UKB3 176-198, looked up)
peptide: HLRFRWSKDAPSELLRKFRNYEI
notes: only its last seven residues 192-KFRNYEI-198 are printed; also called C-terminal DNAJC12 peptide; CTD peptide; source: synthetic peptide, bought: GenScript
B4: PAH-p.R261Q (enzyme, human)
chain: B1 chain with R261Q
notes: phenylalanine hydroxylase (PAH), human, disease-associated variant p.R261Q; Derived from pMAL-c5x/PAH, which encodes human PAH-WT; called tetrameric in the legends; also called PKU-associated variant PAH-p.R261Q; source: E. coli K12 TB1, purified
B5: tyrosine hydroxylase (TH) (enzyme)
chain: not shown
modifications: biotin (EZ-Link NHS-PEG4-Biotin) in the BLI experiment only
notes: tyrosine hydroxylase (TH); The methods tell neither plasmid nor purification of TH; also called unliganded TH

How the values were obtained:
[1] = biological target: the molecule itself; assay: SEC-MALS; PAH (2 mg/mL) and pre-purified PAH:DNAJC12 complex (2 mg/mL); Superdex 200 Increase, 20 mM Na-Hepes pH 7.0, 200 mM NaCl, without L-Phe supplementation
[2] = biological target: T1, DNAJC12, wild type, full-length (human, UniProt Q9UKB3 1-198); assay: BLI; with 1 mM L-Phe; biotinylated PAH on streptavidin biosensors, DNAJC12 0.01-4 μM in solution; 25°C, PBS, 0.02% Tween-20, 0.5 mg/mL BSA; responses against concentration fitted to a one-site hyperbola; conditions: both partners purified
T1 construct: J-domain 14-76, linker-helix 87-100, CTD 176-198; also called DNAJC12-WT

[3] = biological target: T1, DNAJC12, wild type, full-length; assay: BLI; without L-Phe; biotinylated PAH or TH on streptavidin biosensors, DNAJC12 0.01-4 μM in solution; 25°C, PBS, 0.02% Tween-20, 0.5 mg/mL BSA; responses against concentration fitted to a one-site hyperbola; conditions: both partners purified
[4] = biological target: the molecule itself; assay: SEC-MALS; MBP-PAH(RD) (4 mg/mL) alone or with DNAJC12 (4 mg/mL); Superdex 200 Increase, 20 mM Na-Hepes pH 7.0, 200 mM NaCl, 1 mM L-Phe
[5] = biological target: T1, DNAJC12, wild type, full-length; assay: SEC; with 1 mM L-Phe in sample and running buffer; 20 μM (subunit) PAH, PAH variant or MBP-PAH construct with 20-40 μM DNAJC12 or truncated DNAJC12; Superdex 200 Increase, 4°C, 20 mM Na-Hepes pH 7.0, 200 mM NaCl; complex fraction also checked by SDS-PAGE; conditions: both partners purified
[6] = biological target: B1; assay: differential scanning fluorimetry; thermal unfolding of PAH (1.92 μM) with SYPRO Orange at increasing DNAJC12(176-198) peptide (0-16 μM); Tm1 followed; conditions: both partners purified

Binder	Kd [3] [nM]	binding result [5]	also measured
B1	508 ± 59	–	stoichiometry N [1]: 8 subunits in the oligomer and 4 subunits in the oligomer; Kd [2]: 139 ± 19 nM
B2	–	binds	stoichiometry N [4]: 2 subunits in the oligomer
B3	–	–	binding result [6]: binds
B4	–	binds	–
B5	138 ± 34	–	–
